{"source": "paper PMC9237740", "about": "“SNARE SYP132 mediates divergent traffic of plasma membrane H^+-ATPase AHA1 and antimicrobial PR1 during bacterial pathogenesis” (Plant Physiology, 2022)", "binders": {"B1": {"name": "PM H+-ATPase 1 (AHA1), native (natural protein, UniProt P20649 1-949, looked up)", "chain": "MSGLEDIKNETVDLEKIPIEEVFQQLKCTREGLTTQEGEDRIVIFGPNKLEEKKESKILKFLGFMWNPLSWVMEAAALMAIALANGDNRPPDWQDFVGIICLLVINSTISFIEENNAGNAAAALMAGLAPKTKVLRDGKWSEQEAAILVPGDIVSIKLGDIIPADARLLEGDPLKVDQSALTGESLPVTKHPGQEVFSGSTCKQGEIEAVVIATGVHTFFGKAAHLVDSTNQVGHFQKVLTSIGNFCICSIAIGIAIEIVVMYPIQHRKYRDGIDNLLVLLIGGIPIAMPTVLSVTMAIGSHRLSQQGAITKRMTAIEEMAGMDVLCSDKTGTLTLNKLSVDKNLVEVFCKGVEKDQVLLFAAMASRVENQDAIDAAMVGMLADPKEARAGIREVHFLPFNPVDKRTALTYIDSDGNWHRVSKGAPEQILDLANARPDLRKKVLSCIDKYAERGLRSLAVARQVVPEKTKESPGGPWEFVGLLPLFDPPRHDSAETIRRALNLGVNVKMITGDQLAIGKETGRRLGMGTNMYPSAALLGTDKDSNIASIPVEELIEKADGFAGVFPEHKYEIVKKLQERKHIVGMTGDGVNDAPALKKADIGIAVADATDAARGASDIVLTEPGLSVIISAVLTSRAIFQRMKNYTIYAVSITIRIVFGFMLIALIWEFDFSAFMVLIIAILNDGTIMTISKDRVKPSPTPDSWKLKEIFATGIVLGGYQAIMSVIFFWAAHKTDFFSDKFGVRSIRDNNDELMGAVYLQVSIISQALIFVTRSRSWSFVERPGALLMIAFVIAQLVATLIAVYADWTFAKVKGIGWGWAGVIWIYSIVTYFPQDILKFAIRYILSGKAWASLFDNRTAFTTKKDYGIGEREAQWAQAQRTLHGLQPKEDVNIFPEKGSYRELSEIAEQAKRRAEIARLRELHTLKGHVESVAKLKGLDIDTAGHHYTV", "notes": "Plasma membrane H+-ATPase 1 (AHA1), Arabidopsis thaliana, At2g18960; detected with anti-AHA1 antibodies at ~100 kDa; also called AHA1 isoform; plasma membrane H+-ATPase AHA1; source: endogenous, Arabidopsis leaf lysate"}}, "target": "T1, GFP-fused SYP132 (SYNTAXIN OF PLANTS132) expressed under its native promoter (Arabidopsis thaliana, UniProt Q8VZU2 1-304)", "T1 construct": "SYNTAXIN OF PLANTS132 (SYP132), Arabidopsis thaliana, At5g08080; also called GFP-SYP132; SYP132p:GFP-SYP132; source: Arabidopsis SYP132p:GFP-SYP132 transgenic line, in leaf lysate", "T1 sequence (looked up)": "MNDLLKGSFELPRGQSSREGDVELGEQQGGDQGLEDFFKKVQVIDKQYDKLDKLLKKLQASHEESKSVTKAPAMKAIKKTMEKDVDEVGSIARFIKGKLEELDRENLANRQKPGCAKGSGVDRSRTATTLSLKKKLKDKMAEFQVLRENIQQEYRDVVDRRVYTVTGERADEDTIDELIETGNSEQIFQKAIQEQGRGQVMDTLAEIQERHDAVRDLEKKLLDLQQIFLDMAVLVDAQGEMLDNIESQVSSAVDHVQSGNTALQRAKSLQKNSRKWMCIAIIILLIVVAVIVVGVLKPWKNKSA", "assay": "co-IP; GFP-Trap agarose beads saturated with GFP-tagged bait from Arabidopsis leaf lysates; plants treated 24 h without or with Pst DC3000 in 10 mM MgCl2; binding buffer PBS pH 7.45, 0.01% Triton X-100, 0.05 mM DTT, 0.01% CHAPS, 1 h at 4°C; washes with additional 150 mM NaCl; bound proteins detected by immunoblot", "settings": "partners not purified", "data": [{"binder": "B1", "values": [{"measurement": "fold change of Co-IP bound/bait after Pst DC3000 infection relative to buffer control", "value": "~2.5", "unit": "fold"}]}]}
